This experiment deals with MVN-DAVEI4-3Trp (not stated | HIV-1 (strain not stated)). Kind of experiment: ELISA. A general note: ELISA stands for enzyme-linked immunosorbent assay.

As usually defined, the EC50 is the midpoint of the concentration-response curve. The low end stands for a more potent agent, the high end for a less potent agent. The substance “HIV-1 YU2 gp120 (from UniProt P35961 32-498) (natural protein)” showed an EC50 of 79 nM.

These data come from paper PMC5944358.
